Reference: patent publication US20220031650A1 (PDS BIOTECHNOLOGY, published 2022)

B1: native E7 peptide (HPV 16 E7 protein, amino acid 49-57, H-2D^b restricted CTL epitope) (peptide)
peptide: RAHYNIVTF
notes: Synthetic free peptide, added at 10 uM to RMA-S cells; also called E7 antigen
B2: KSS-E7 peptide (KSS (lysine-serine-serine)-elongated E7 peptide without the lipid chain) (peptide)
peptide: KSSRAHYNIVTF
notes: Not lipidated; added at 10 uM to RMA-S cells; also called KSS-elongated E7 peptide

How the values were obtained:
[1] = molecular target: T1, H-2D^b molecules on RMA-S cells (mouse, UniProt P01899 25-362; P01887 21-119); assay: RMA-S MHC class I stabilisation assay, 10 µM peptide, flow cytometry with anti-H-2D^b antibody, medium control
T1 construct: whole, on cells; also called MHC class I
T1 sequence (MHC heavy, looked up): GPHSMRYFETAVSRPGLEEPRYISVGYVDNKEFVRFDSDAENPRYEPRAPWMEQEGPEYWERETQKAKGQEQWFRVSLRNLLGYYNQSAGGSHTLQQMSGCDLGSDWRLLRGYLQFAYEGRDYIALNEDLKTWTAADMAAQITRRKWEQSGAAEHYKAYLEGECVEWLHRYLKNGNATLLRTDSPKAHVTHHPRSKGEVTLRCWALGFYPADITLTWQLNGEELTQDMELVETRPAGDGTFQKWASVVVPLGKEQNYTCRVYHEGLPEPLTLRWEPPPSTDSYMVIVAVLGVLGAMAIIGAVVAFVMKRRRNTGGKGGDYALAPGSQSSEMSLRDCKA
T1 sequence (looked up): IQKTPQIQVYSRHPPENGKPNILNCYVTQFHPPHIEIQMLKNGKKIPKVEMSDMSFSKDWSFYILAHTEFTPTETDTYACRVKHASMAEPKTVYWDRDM
Protocol: We evaluated the MHC class I binding affinity of native and KSS-elongated E7 peptides. RMA-S cells, a mouse lymphoma cell line at a concentration of 5×10⁵ cells/ml were incubated overnight at 27° C. with native E7 or KSS-E7 peptide (10 μM). Cells incubated with medium were used as a control. Cells were then incubated for 2 h at 37° C. After washes, cells were stained with fluorescently conjugated monoclonal antibodies against H-2D^b or H-2K^b molecules on the cell surface prior to flow cytometry analysis.

[2] = molecular target: T2, H-2K^b molecules on RMA-S cells (mouse, UniProt P01901 22-369; P01887 21-119); assay: RMA-S MHC class I stabilisation assay, flow cytometry with anti-H-2K^b antibody
T2 construct: whole, on cells
T2 sequence (MHC heavy): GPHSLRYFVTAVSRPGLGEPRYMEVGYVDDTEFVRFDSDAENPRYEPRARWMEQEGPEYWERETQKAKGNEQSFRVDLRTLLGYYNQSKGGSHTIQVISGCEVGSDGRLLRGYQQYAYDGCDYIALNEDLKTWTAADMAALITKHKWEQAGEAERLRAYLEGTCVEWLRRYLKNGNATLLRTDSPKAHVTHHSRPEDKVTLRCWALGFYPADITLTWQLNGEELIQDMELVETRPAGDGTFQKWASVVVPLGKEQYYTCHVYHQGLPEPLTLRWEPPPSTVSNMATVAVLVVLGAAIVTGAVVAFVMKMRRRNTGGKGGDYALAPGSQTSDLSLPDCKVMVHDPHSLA
T2 sequence: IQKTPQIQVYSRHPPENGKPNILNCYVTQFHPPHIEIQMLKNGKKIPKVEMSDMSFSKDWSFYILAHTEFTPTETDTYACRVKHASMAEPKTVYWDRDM

Row | Binder | fold up-regulation of H-2D^b molecules on RMA-S cells compared to the control [1] [fold] | binding result [2] | fold increase in the mean fluorescence (H-2D^b on RMA-S cells) [1] [fold]
1 | B1 | 4 | no binding (tested: 10 µM) | 
2 | B2 |  | no binding (tested: 10 µM) | 8
